Experimental data: patent publication US20200123239A1 (PROTHENA BIOSCIENCES, published 2020)

T1: tau peptide fragment, residues 25-44 of SEQ ID NO: 1 (human)
T1 construct: Proteolytic fragment (LysC and trypsin digests) of rTau, precipitated with 16B5 and identified by MALDI-TOF/TOF
T1 peptide: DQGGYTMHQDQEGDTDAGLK

T2: tau peptide fragment, residues 24-44 of SEQ ID NO: 1 (human)
T2 construct: Proteolytic fragment (trypsin digest) of rTau, precipitated with 16B5 and identified by MALDI-TOF/TOF
T2 peptide: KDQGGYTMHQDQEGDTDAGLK


What was measured:
[1] = target: T1, tau peptide fragment, residues 25-44 of …; assay: precipitation of digest fragments with 16B5, HPLC, MALDI-TOF/TOF (LysC and trypsin digests)
Procedure: (§1) The human tau sequence with 4 microtubule binding repeats and no N-terminal inserts, and containing a P301L mutation (rTau), was expressed in E. coli and purified. […] Enzymatic digests of 200 ug of tau were carried out with one of four different proteases: trypsin (which cleaves at the carboxyl end of arginine and lysine), chymotrypsin (which primarily cleaves at the carboxyl end of tyrosine, tryptophan, phenylalanine and leucine), LysC (which cleaves at the carboxyl end of lysine), or GluC (which cleaves after glutamate residues and rarely after aspartate residues). All proteases were obtained from Thermo Scientific, and digests were performed for 16 h at 37° C. […] Precipitates were thoroughly washed in PBS containing 300 mM NaCl and 0.5% NP-40, then eluted with 1M NaCl in 100 mM glycine, pH 2.8. Eluates were dried under vacuum and resuspended in 0.1% trifluoroacetic acid (TFA). […] Peak fractions were collected, dried and resuspended in distilled water. Peptide masses and identities were determined by MALDI-TOF/TOF.

[2] = target: T3, Δ30-39 deletion mutant of tau (rTau) (human, UniProt P10636 1-758); assay: Western blot of bacterial lysates
T3 construct: Deletion mutagenesis of rTau; Tested as clarified bacterial lysate on Western blots; also called A30-39
Procedure: (§2) To control for sample loading, Tau46, an antibody with specificity for the C-terminal region of tau (C-terminal epitope), was used to stain duplicate blots. Both antibodies were used at a concentration of 0.2 μg/mL. Images were captured using a Licor Odyssey fluorescent scanner. The following deletion mutants of tau were made and analyzed in this manner: Δ5-24, Δ23-32, Δ25-44, Δ30-39, and Δ37-46.

[3] = target: T4, Δ25-44 deletion mutant of tau (rTau) (human, UniProt P10636 1-758); assay: Western blot of bacterial lysates
T4 construct: Deletion mutagenesis of rTau; Tested as clarified bacterial lysate on Western blots; also called A25-44
Procedure: as §2

[4] = target: T5, Δ23-32 deletion mutant of tau (rTau) (human, UniProt P10636 1-758); assay: Western blot of bacterial lysates, 16B5 at 0.2 µg/mL
T5 construct: Deletion mutagenesis of rTau; Tested as clarified bacterial lysate on Western blots; also called A23-32
Procedure: as §2

[5] = target: T2, tau peptide fragment, residues 24-44 of …; assay: precipitation of digest fragments with 16B5, HPLC, MALDI-TOF/TOF (trypsin digest)
Procedure: as §1

[6] = target: T6, Δ5-24 deletion mutant of tau (rTau) (human, UniProt P10636-6 1-383); assay: Western blot of bacterial lysate, stained with 16B5 at 0.2 ug/mL
T6 construct: Deletion mutagenesis of rTau; Tested as clarified bacterial lysate on Western blots; also called A5-24
Procedure: as §2

[7] = target: T7, human tau with 4 microtubule binding repeats and no N-terminal inserts, containing a P301L mutation (rTau) (human, UniProt P10636 2-758); assay: as above
T7 construct: Expressed in E. coli and purified; also called full-length Tau; wild-type Tau (WT) on the blots
Procedure: as §2

[8] = target: recombinant purified hTau-P301L (human) (UniProt P10636); assay: SPR (Biacore T200), antibody captured on anti-human or anti-mouse antibody, hTau-P301L as analyte
Sequence of recombinant purified hTau-P301L (human) (P10636 other isoform, or with tags, fused parts or gaps P301L P301L): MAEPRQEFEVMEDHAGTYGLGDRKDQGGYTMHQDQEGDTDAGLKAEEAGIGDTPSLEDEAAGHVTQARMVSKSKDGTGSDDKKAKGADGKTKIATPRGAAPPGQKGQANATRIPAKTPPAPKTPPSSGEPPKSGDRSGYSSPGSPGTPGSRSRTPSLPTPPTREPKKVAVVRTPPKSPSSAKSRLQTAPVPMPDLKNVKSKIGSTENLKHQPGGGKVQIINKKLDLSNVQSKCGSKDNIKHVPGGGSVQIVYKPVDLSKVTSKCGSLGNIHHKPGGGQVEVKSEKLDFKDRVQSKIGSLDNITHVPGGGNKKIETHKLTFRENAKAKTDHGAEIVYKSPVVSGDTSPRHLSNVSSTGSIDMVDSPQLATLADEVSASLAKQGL

T5 sequence (P10636 other isoform, or with tags, fused parts or gaps mutant): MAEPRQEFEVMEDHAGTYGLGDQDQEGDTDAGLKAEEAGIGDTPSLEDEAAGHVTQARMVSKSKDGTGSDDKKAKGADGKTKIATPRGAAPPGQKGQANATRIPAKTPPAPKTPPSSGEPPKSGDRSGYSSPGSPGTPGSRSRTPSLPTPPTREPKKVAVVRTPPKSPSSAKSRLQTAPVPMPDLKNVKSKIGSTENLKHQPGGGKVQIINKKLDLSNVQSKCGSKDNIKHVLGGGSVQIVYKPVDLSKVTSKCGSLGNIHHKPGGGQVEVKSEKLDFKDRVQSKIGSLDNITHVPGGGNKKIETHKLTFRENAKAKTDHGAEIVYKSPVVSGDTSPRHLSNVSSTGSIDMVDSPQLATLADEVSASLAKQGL
T6 sequence (P10636 other isoform, or with tags, fused parts or gaps mutant): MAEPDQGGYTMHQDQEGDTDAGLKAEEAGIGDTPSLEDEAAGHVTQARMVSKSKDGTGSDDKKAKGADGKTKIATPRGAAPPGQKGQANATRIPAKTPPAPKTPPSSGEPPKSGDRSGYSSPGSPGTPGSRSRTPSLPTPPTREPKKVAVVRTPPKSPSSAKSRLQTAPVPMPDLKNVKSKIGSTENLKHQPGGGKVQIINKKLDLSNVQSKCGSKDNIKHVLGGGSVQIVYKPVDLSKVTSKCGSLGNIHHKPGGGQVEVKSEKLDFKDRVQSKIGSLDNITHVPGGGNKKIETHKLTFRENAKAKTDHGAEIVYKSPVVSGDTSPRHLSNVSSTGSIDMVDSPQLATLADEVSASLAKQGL
T7 sequence (P10636 other isoform, or with tags, fused parts or gaps P301L P301L limits assumed): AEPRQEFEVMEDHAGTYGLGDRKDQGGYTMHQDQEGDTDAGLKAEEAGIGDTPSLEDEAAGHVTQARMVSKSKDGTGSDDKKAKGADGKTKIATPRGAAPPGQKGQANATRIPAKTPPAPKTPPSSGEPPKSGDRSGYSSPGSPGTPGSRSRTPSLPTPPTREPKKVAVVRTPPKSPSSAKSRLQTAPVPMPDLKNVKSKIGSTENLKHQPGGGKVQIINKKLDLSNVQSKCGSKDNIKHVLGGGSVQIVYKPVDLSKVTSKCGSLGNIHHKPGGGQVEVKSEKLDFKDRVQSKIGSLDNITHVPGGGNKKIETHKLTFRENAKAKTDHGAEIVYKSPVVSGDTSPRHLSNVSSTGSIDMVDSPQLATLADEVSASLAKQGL
T3 sequence (P10636 other isoform, or with tags, fused parts or gaps mutant): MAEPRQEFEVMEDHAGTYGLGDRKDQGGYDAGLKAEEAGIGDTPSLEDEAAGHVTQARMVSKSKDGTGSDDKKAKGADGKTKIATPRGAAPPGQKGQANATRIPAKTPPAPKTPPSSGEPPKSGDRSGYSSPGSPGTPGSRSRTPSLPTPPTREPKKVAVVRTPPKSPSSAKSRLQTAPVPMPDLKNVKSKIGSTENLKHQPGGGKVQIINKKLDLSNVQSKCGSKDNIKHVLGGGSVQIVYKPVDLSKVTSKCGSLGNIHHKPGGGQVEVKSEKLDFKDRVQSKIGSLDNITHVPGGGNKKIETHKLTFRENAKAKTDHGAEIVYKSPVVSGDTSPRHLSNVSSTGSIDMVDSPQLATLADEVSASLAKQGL
T4 sequence (P10636 other isoform, or with tags, fused parts or gaps mutant): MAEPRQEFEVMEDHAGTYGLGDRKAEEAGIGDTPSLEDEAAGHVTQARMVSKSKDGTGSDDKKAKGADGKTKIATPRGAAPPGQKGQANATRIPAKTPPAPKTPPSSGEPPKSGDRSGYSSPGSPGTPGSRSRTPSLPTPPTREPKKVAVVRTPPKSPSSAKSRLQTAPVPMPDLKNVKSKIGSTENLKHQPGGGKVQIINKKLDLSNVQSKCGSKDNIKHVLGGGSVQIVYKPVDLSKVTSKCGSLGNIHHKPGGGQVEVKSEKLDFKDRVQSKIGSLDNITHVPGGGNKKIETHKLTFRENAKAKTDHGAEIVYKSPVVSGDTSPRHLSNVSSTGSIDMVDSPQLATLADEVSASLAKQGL

Row | Binder | binding result [1] | binding result [2] | binding result [3] | binding result [4] | binding result [5] | binding result [6] | binding result [7] | Kd [8] [nM] | koff [8] [s⁻¹] | kon [8] [M⁻¹ s⁻¹]
1 | humanized 16B5 antibody, version H1L1 (antibody, V domains shown) VH: QVQLVQSGSELKKPGASVKVSCKASGYTFTYHGMDWVRQAPGQGLEWMGWINTYSGVPTYADDFKGRFVFSLDTSVSTAYLQISSLKAEDTAVYFCARRRDFTMDFWGQGTTVTVSS VL: NIVLTQSPDSLAVSLGERATINCKSSQSLLNSRTRKNYLAWFQQKPGQPPKLLIYWASTRESGVPDRFSGSGSGTDFTLTISSLQAEDVAVYYCKQSYTLRTFGGGTKVEIKR |  |  |  |  |  |  |  | 0.617 | 0.00215 | 3.5e+06
2 | humanized 16B5 antibody, version H1L3 (antibody, V domains shown) VH: QVQLVQSGSELKKPGASVKVSCKASGYTFTYHGMDWVRQAPGQGLEWMGWINTYSGVPTYADDFKGRFVFSLDTSVSTAYLQISSLKAEDTAVYFCARRRDFTMDFWGQGTTVTVSS VL: DIVLTQSPDSLAVSLGERATINCKSSQSLLNSRTRKNYLAWFQQKPGQSPKLLIYWASTRESGVPDRFSGSGSGTDFTLTISSLQAEDVAVYYCKQSYTLRTFGGGTKVEIKR |  |  |  |  |  |  |  | 0.32 | 0.00398 | 1.25e+07

The remaining lines, values ahead:

Row | binding result [1] | binding result [2] | binding result [3] | binding result [4] | binding result [5] | binding result [6] | binding result [7] | Kd [8] [nM] | koff [8] [s⁻¹] | kon [8] [M⁻¹ s⁻¹] | Binder
3 | binds | no binding (tested: 0.2 µg/mL) | no binding (tested: 0.2 µg/mL) | binds | binds | binds | binds |  |  |  | murine monoclonal anti-tau antibody 16B5 (antibody, V domains shown, Mouse monoclonal antibody; the isotype control used alongside it is IgG1; also called 16B5 monoclonal antibody; pan antibody 16B5) VH: QIQLVQSGPELKKPGETVKISCKASGYPFTYHGMDWVKQAPWGGLEWMGWINTYSGVPTYADDFKGRFAFSLETSVGTAYLQINNLKNEDTATYFCARRRDFTMDFWGQGTSVTVSS VL: NIVLSQSPSSLAVSPGEKVTMSCKSSQSLLNSRTRKNYLAWFQQKPGQSPKLLIYWASTRESGVPDRFTGSGSGTDFTLTISSVQAEDLAVYYCKQSYTLRTFGGGTNLEIKR
4 |  |  |  |  |  |  |  | 0.286 | 0.00342 | 1.2e+07 | humanized 16B5 antibody, version H1L2 (antibody, V domains shown) VH: QVQLVQSGSELKKPGASVKVSCKASGYTFTYHGMDWVRQAPGQGLEWMGWINTYSGVPTYADDFKGRFVFSLDTSVSTAYLQISSLKAEDTAVYFCARRRDFTMDFWGQGTTVTVSS VL: NIVLTQSPDSLAVSLGERATINCKSSQSLLNSRTRKNYLAWFQQKPGQSPKLLIYWASTRESGVPDRFSGSGSGTDFTLTISSLQAEDVAVYYCKQSYTLRTFGGGTKVEIKR
